Data on one molecule can be found in patent publication US20090098142A1.

The target in assay [1] is native human IL-13 (human) (UniProt P35225). Description: cell-based or functional assay.
Assay [2] concerns the target cynomolgus monkey IL-13 (NHP IL-13) (cynomolgus monkey). Nature of the assay: cell-based or functional assay.

native human IL-13 (human), sequence (P35225 other isoform, or with tags, fused parts or gaps): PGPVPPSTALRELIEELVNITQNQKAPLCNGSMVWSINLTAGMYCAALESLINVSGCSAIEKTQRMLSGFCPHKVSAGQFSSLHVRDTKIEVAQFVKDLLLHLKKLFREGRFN
cynomolgus monkey IL-13 (NHP IL-13) (cynomolgus monkey), sequence (Q5I6E4 other isoform, or with tags, fused parts or gaps): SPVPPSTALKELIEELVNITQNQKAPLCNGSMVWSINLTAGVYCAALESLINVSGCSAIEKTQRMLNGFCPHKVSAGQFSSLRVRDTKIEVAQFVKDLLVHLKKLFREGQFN

B1: antibody with the murine heavy chain of MJ2-7 and a humanized light chain (antibody, part only; not given: humanized light chain, V domains shown, part only)
VH: EVQLQQSGAELVKPGASVKLSCTGSGFNIKDTYIHWVKQRPEQGLEWIGRIDPANDNIKYDPKFQGKATITADTSSNTAYLQLNSLTSEDTAVYYCARSEENWYDFFDYWGQGTTLTVSS
B1 showed an STAT6 phosphorylation assay, native human IL-13 at 1 ng/ml, IC50 in assay [1] of 0.554 nM. In addition, the CD23 expression assay, non-human primate IL-13 at 1 ng/ml, IC50 in assay [2] was determined as 0.308 nM.
